biological target: T1, Human CD137 ECD (human); assay: Biacore SPR, vs parent H183/L072
T1 construct: entry includes C-terminal His-tag and biotin acceptor peptide; also called human CD137 extracellular domain; 4-1BB
T1 sequence (chain, as listed by the source limits assumed): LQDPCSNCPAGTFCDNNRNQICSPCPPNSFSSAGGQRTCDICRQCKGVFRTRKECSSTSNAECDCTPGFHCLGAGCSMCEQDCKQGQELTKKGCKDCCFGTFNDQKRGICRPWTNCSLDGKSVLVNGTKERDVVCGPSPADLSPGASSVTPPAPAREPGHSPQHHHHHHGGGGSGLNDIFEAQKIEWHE

Row | fold change of affinity [fold] | Binder
1 | 0.1 | H183/L072 VL N53M (antibody, name in Kabat numbering, V domains shown, Dual-Ig) VH: QVQLVESGGGLVQPGRSLRLSCAASGFTFSNAWMHWVRQAPGKGLEWVAQIKDKGNAYAAYYAPSVKGRFTISRDDSKNSIYLQMNSLKTEDTAVYYCHYVHYASASTVLPAFGVDAWGQGTTVTVSS VL: DIVMTQSPLSLPVTPGEPASISCQASQELVHMNRNTYLHWYQQKPGQAPRLLIYKVSMRFPGVPDRFSGSGSGTDFTLKISRVEAEDVGVYYCAQGTSVPFTFGQGTKLEIK
2 | 0.5 | H183/L072 VL N53S (antibody, name in Kabat numbering, V domains shown, Dual-Ig) VH: QVQLVESGGGLVQPGRSLRLSCAASGFTFSNAWMHWVRQAPGKGLEWVAQIKDKGNAYAAYYAPSVKGRFTISRDDSKNSIYLQMNSLKTEDTAVYYCHYVHYASASTVLPAFGVDAWGQGTTVTVSS VL: DIVMTQSPLSLPVTPGEPASISCQASQELVHMNRNTYLHWYQQKPGQAPRLLIYKVSSRFPGVPDRFSGSGSGTDFTLKISRVEAEDVGVYYCAQGTSVPFTFGQGTKLEIK
3 | 0 | H183/L072 VL N53P (antibody, name in Kabat numbering, V domains shown, Dual-Ig) VH: QVQLVESGGGLVQPGRSLRLSCAASGFTFSNAWMHWVRQAPGKGLEWVAQIKDKGNAYAAYYAPSVKGRFTISRDDSKNSIYLQMNSLKTEDTAVYYCHYVHYASASTVLPAFGVDAWGQGTTVTVSS VL: DIVMTQSPLSLPVTPGEPASISCQASQELVHMNRNTYLHWYQQKPGQAPRLLIYKVSPRFPGVPDRFSGSGSGTDFTLKISRVEAEDVGVYYCAQGTSVPFTFGQGTKLEIK
4 | 0.2 | H183/L072 VL N53E (antibody, name in Kabat numbering, V domains shown, Dual-Ig) VH: QVQLVESGGGLVQPGRSLRLSCAASGFTFSNAWMHWVRQAPGKGLEWVAQIKDKGNAYAAYYAPSVKGRFTISRDDSKNSIYLQMNSLKTEDTAVYYCHYVHYASASTVLPAFGVDAWGQGTTVTVSS VL: DIVMTQSPLSLPVTPGEPASISCQASQELVHMNRNTYLHWYQQKPGQAPRLLIYKVSERFPGVPDRFSGSGSGTDFTLKISRVEAEDVGVYYCAQGTSVPFTFGQGTKLEIK
5 | 0.6 | H183/L072 VL N53G (antibody, name in Kabat numbering, V domains shown, Dual-Ig) VH: QVQLVESGGGLVQPGRSLRLSCAASGFTFSNAWMHWVRQAPGKGLEWVAQIKDKGNAYAAYYAPSVKGRFTISRDDSKNSIYLQMNSLKTEDTAVYYCHYVHYASASTVLPAFGVDAWGQGTTVTVSS VL: DIVMTQSPLSLPVTPGEPASISCQASQELVHMNRNTYLHWYQQKPGQAPRLLIYKVSGRFPGVPDRFSGSGSGTDFTLKISRVEAEDVGVYYCAQGTSVPFTFGQGTKLEIK
6 | 0.2 | H183/L072 VL N53I (antibody, name in Kabat numbering, V domains shown, Dual-Ig) VH: QVQLVESGGGLVQPGRSLRLSCAASGFTFSNAWMHWVRQAPGKGLEWVAQIKDKGNAYAAYYAPSVKGRFTISRDDSKNSIYLQMNSLKTEDTAVYYCHYVHYASASTVLPAFGVDAWGQGTTVTVSS VL: DIVMTQSPLSLPVTPGEPASISCQASQELVHMNRNTYLHWYQQKPGQAPRLLIYKVSIRFPGVPDRFSGSGSGTDFTLKISRVEAEDVGVYYCAQGTSVPFTFGQGTKLEIK
7 | 0.3 | H183/L072 VL N53F (antibody, name in Kabat numbering, V domains shown, Dual-Ig) VH: QVQLVESGGGLVQPGRSLRLSCAASGFTFSNAWMHWVRQAPGKGLEWVAQIKDKGNAYAAYYAPSVKGRFTISRDDSKNSIYLQMNSLKTEDTAVYYCHYVHYASASTVLPAFGVDAWGQGTTVTVSS VL: DIVMTQSPLSLPVTPGEPASISCQASQELVHMNRNTYLHWYQQKPGQAPRLLIYKVSFRFPGVPDRFSGSGSGTDFTLKISRVEAEDVGVYYCAQGTSVPFTFGQGTKLEIK
8 | 0.4 | H183/L072 VL N53Q (antibody, name in Kabat numbering, V domains shown, Dual-Ig) VH: QVQLVESGGGLVQPGRSLRLSCAASGFTFSNAWMHWVRQAPGKGLEWVAQIKDKGNAYAAYYAPSVKGRFTISRDDSKNSIYLQMNSLKTEDTAVYYCHYVHYASASTVLPAFGVDAWGQGTTVTVSS VL: DIVMTQSPLSLPVTPGEPASISCQASQELVHMNRNTYLHWYQQKPGQAPRLLIYKVSQRFPGVPDRFSGSGSGTDFTLKISRVEAEDVGVYYCAQGTSVPFTFGQGTKLEIK
9 | 0.2 | H183/L072 VL N53K (antibody, name in Kabat numbering, V domains shown, Dual-Ig) VH: QVQLVESGGGLVQPGRSLRLSCAASGFTFSNAWMHWVRQAPGKGLEWVAQIKDKGNAYAAYYAPSVKGRFTISRDDSKNSIYLQMNSLKTEDTAVYYCHYVHYASASTVLPAFGVDAWGQGTTVTVSS VL: DIVMTQSPLSLPVTPGEPASISCQASQELVHMNRNTYLHWYQQKPGQAPRLLIYKVSKRFPGVPDRFSGSGSGTDFTLKISRVEAEDVGVYYCAQGTSVPFTFGQGTKLEIK
10 | 0.3 | H183/L072 VL N53R (antibody, name in Kabat numbering, V domains shown, Dual-Ig) VH: QVQLVESGGGLVQPGRSLRLSCAASGFTFSNAWMHWVRQAPGKGLEWVAQIKDKGNAYAAYYAPSVKGRFTISRDDSKNSIYLQMNSLKTEDTAVYYCHYVHYASASTVLPAFGVDAWGQGTTVTVSS VL: DIVMTQSPLSLPVTPGEPASISCQASQELVHMNRNTYLHWYQQKPGQAPRLLIYKVSRRFPGVPDRFSGSGSGTDFTLKISRVEAEDVGVYYCAQGTSVPFTFGQGTKLEIK
11 | 0.2 | H183/L072 VL N53L (antibody, name in Kabat numbering, V domains shown, Dual-Ig) VH: QVQLVESGGGLVQPGRSLRLSCAASGFTFSNAWMHWVRQAPGKGLEWVAQIKDKGNAYAAYYAPSVKGRFTISRDDSKNSIYLQMNSLKTEDTAVYYCHYVHYASASTVLPAFGVDAWGQGTTVTVSS VL: DIVMTQSPLSLPVTPGEPASISCQASQELVHMNRNTYLHWYQQKPGQAPRLLIYKVSLRFPGVPDRFSGSGSGTDFTLKISRVEAEDVGVYYCAQGTSVPFTFGQGTKLEIK
12 | 0.5 | H183/L072 VL N53H (antibody, name in Kabat numbering, V domains shown, Dual-Ig) VH: QVQLVESGGGLVQPGRSLRLSCAASGFTFSNAWMHWVRQAPGKGLEWVAQIKDKGNAYAAYYAPSVKGRFTISRDDSKNSIYLQMNSLKTEDTAVYYCHYVHYASASTVLPAFGVDAWGQGTTVTVSS VL: DIVMTQSPLSLPVTPGEPASISCQASQELVHMNRNTYLHWYQQKPGQAPRLLIYKVSHRFPGVPDRFSGSGSGTDFTLKISRVEAEDVGVYYCAQGTSVPFTFGQGTKLEIK

Continued, binder first:

Row | Binder | fold change of affinity [fold]
13 | H183/L072 VL N30Q (antibody, name in Kabat numbering, V domains shown, Dual-Ig) VH: QVQLVESGGGLVQPGRSLRLSCAASGFTFSNAWMHWVRQAPGKGLEWVAQIKDKGNAYAAYYAPSVKGRFTISRDDSKNSIYLQMNSLKTEDTAVYYCHYVHYASASTVLPAFGVDAWGQGTTVTVSS VL: DIVMTQSPLSLPVTPGEPASISCQASQELVHMNRQTYLHWYQQKPGQAPRLLIYKVSNRFPGVPDRFSGSGSGTDFTLKISRVEAEDVGVYYCAQGTSVPFTFGQGTKLEIK | 1
14 | H183/L072 VL N53A (antibody, name in Kabat numbering, V domains shown, Dual-Ig) VH: QVQLVESGGGLVQPGRSLRLSCAASGFTFSNAWMHWVRQAPGKGLEWVAQIKDKGNAYAAYYAPSVKGRFTISRDDSKNSIYLQMNSLKTEDTAVYYCHYVHYASASTVLPAFGVDAWGQGTTVTVSS VL: DIVMTQSPLSLPVTPGEPASISCQASQELVHMNRNTYLHWYQQKPGQAPRLLIYKVSARFPGVPDRFSGSGSGTDFTLKISRVEAEDVGVYYCAQGTSVPFTFGQGTKLEIK | 0.7
15 | H183/L072 VL N53D (antibody, name in Kabat numbering, V domains shown, Dual-Ig) VH: QVQLVESGGGLVQPGRSLRLSCAASGFTFSNAWMHWVRQAPGKGLEWVAQIKDKGNAYAAYYAPSVKGRFTISRDDSKNSIYLQMNSLKTEDTAVYYCHYVHYASASTVLPAFGVDAWGQGTTVTVSS VL: DIVMTQSPLSLPVTPGEPASISCQASQELVHMNRNTYLHWYQQKPGQAPRLLIYKVSDRFPGVPDRFSGSGSGTDFTLKISRVEAEDVGVYYCAQGTSVPFTFGQGTKLEIK | 0.3
16 | H183/L072 VL N30R (antibody, name in Kabat numbering, V domains shown, Dual-Ig) VH: QVQLVESGGGLVQPGRSLRLSCAASGFTFSNAWMHWVRQAPGKGLEWVAQIKDKGNAYAAYYAPSVKGRFTISRDDSKNSIYLQMNSLKTEDTAVYYCHYVHYASASTVLPAFGVDAWGQGTTVTVSS VL: DIVMTQSPLSLPVTPGEPASISCQASQELVHMNRRTYLHWYQQKPGQAPRLLIYKVSNRFPGVPDRFSGSGSGTDFTLKISRVEAEDVGVYYCAQGTSVPFTFGQGTKLEIK | 0.5
17 | H183/L072 VL N30S (antibody, name in Kabat numbering, V domains shown, Dual-Ig) VH: QVQLVESGGGLVQPGRSLRLSCAASGFTFSNAWMHWVRQAPGKGLEWVAQIKDKGNAYAAYYAPSVKGRFTISRDDSKNSIYLQMNSLKTEDTAVYYCHYVHYASASTVLPAFGVDAWGQGTTVTVSS VL: DIVMTQSPLSLPVTPGEPASISCQASQELVHMNRSTYLHWYQQKPGQAPRLLIYKVSNRFPGVPDRFSGSGSGTDFTLKISRVEAEDVGVYYCAQGTSVPFTFGQGTKLEIK | 0.2
18 | H183/L072 VL N30T (antibody, name in Kabat numbering, V domains shown, Dual-Ig) VH: QVQLVESGGGLVQPGRSLRLSCAASGFTFSNAWMHWVRQAPGKGLEWVAQIKDKGNAYAAYYAPSVKGRFTISRDDSKNSIYLQMNSLKTEDTAVYYCHYVHYASASTVLPAFGVDAWGQGTTVTVSS VL: DIVMTQSPLSLPVTPGEPASISCQASQELVHMNRTTYLHWYQQKPGQAPRLLIYKVSNRFPGVPDRFSGSGSGTDFTLKISRVEAEDVGVYYCAQGTSVPFTFGQGTKLEIK | 0.3
19 | H183/L072 VL N30V (antibody, name in Kabat numbering, V domains shown, Dual-Ig) VH: QVQLVESGGGLVQPGRSLRLSCAASGFTFSNAWMHWVRQAPGKGLEWVAQIKDKGNAYAAYYAPSVKGRFTISRDDSKNSIYLQMNSLKTEDTAVYYCHYVHYASASTVLPAFGVDAWGQGTTVTVSS VL: DIVMTQSPLSLPVTPGEPASISCQASQELVHMNRVTYLHWYQQKPGQAPRLLIYKVSNRFPGVPDRFSGSGSGTDFTLKISRVEAEDVGVYYCAQGTSVPFTFGQGTKLEIK | 0.7
20 | H183/L072 VL N30W (antibody, name in Kabat numbering, V domains shown, Dual-Ig) VH: QVQLVESGGGLVQPGRSLRLSCAASGFTFSNAWMHWVRQAPGKGLEWVAQIKDKGNAYAAYYAPSVKGRFTISRDDSKNSIYLQMNSLKTEDTAVYYCHYVHYASASTVLPAFGVDAWGQGTTVTVSS VL: DIVMTQSPLSLPVTPGEPASISCQASQELVHMNRWTYLHWYQQKPGQAPRLLIYKVSNRFPGVPDRFSGSGSGTDFTLKISRVEAEDVGVYYCAQGTSVPFTFGQGTKLEIK | 0.9
21 | H183/L072 VL N30Y (antibody, name in Kabat numbering, V domains shown, Dual-Ig) VH: QVQLVESGGGLVQPGRSLRLSCAASGFTFSNAWMHWVRQAPGKGLEWVAQIKDKGNAYAAYYAPSVKGRFTISRDDSKNSIYLQMNSLKTEDTAVYYCHYVHYASASTVLPAFGVDAWGQGTTVTVSS VL: DIVMTQSPLSLPVTPGEPASISCQASQELVHMNRYTYLHWYQQKPGQAPRLLIYKVSNRFPGVPDRFSGSGSGTDFTLKISRVEAEDVGVYYCAQGTSVPFTFGQGTKLEIK | 0.6

Source: patent US20210388087A1 (Chugai, published 2021)
